# Molecular target: PD-1 Ligand (PD-L1) (UniProt Q9NZQ7)
# Sequence (Q9NZQ7 19-290): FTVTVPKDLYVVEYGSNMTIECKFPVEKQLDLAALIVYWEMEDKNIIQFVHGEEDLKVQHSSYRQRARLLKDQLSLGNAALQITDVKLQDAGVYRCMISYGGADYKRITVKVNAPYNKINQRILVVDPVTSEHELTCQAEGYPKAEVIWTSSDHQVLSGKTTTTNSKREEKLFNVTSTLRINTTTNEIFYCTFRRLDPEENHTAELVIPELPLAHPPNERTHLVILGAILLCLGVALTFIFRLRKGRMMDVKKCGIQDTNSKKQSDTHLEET
substance,measurement,value
WW domain containing E3 ubiquitin protein ligase 1 (WWP1),PD-L1 K63-linked poly-ubiquitination (gel images),WWP1 triggers PD-L1 K63-linked poly-ubiquitination
same,PD-L1 ubiquitination (gel images),WWP1 triggers PD-L1 ubiquitination in a catalytic dependent manner

# From patent publication US20210002649
